Measured values as given in the supplement of paper PMC9112550, “Optimization of the antimicrobial peptide Bac7 by deep mutational scanning” (BMC Biology, 2022).

System: Escherichia coli TOP10
Test: shrunken log2 fold change of peptide-encoding DNA abundance (4.5 h post-induction vs induction); higher = less antimicrobial activity (less host growth inhibition)
Conditions: time post-induction: 4.5 h; library: site-saturation at positions 5, 18, 19, 20
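Note: peptides expressed intracellularly from a pBAD plasmid library in pooled LB shake-flask culture, induced with 0.3% L-arabinose, DNA abundance read by NGS, three biological replicates, DESeq2 with apeglm shrinkage.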

## RRIRCRPPRLPRPRPRPRDWPRP
  shrunken log2 fold change: 0.591

## RRIRRRPPRLPRPRPRPTRTPRP
  shrunken log2 fold change: 0.681

## RRIRGRPPRLPRPRPRPKWLPRP
  shrunken log2 fold change: 0.749

## RRIRPRPPRLPRPRPRPNLYPRP
  shrunken log2 fold change: -0.276

## RRIRHRPPRLPRPRPRPKGPPRP
  shrunken log2 fold change: 0.216

## RRIRFRPPRLPRPRPRPKNTPRP
  shrunken log2 fold change: -0.487

## RRIRCRPPRLPRPRPRPPVYPRP
  shrunken log2 fold change: 0.000934

## RRIRYRPPRLPRPRPRPIIDPRP
  shrunken log2 fold change: -1

## RRIRVRPPRLPRPRPRPRHTPRP
  shrunken log2 fold change: 0.226

## RRIRARPPRLPRPRPRPRIPPRP
  shrunken log2 fold change: 0.0568

## RRIRPRPPRLPRPRPRPLNQPRP
  shrunken log2 fold change: -0.217

## RRIRWRPPRLPRPRPRPIPCPRP
  shrunken log2 fold change: -0.0198

## RRIRYRPPRLPRPRPRPFDTPRP
  shrunken log2 fold change: -1.81

## RRIRARPPRLPRPRPRPRAMPRP
  shrunken log2 fold change: 0.808

## RRIRWRPPRLPRPRPRPVMEPRP
  shrunken log2 fold change: 0.0979

## RRIRNRPPRLPRPRPRPKCMPRP
  shrunken log2 fold change: -0.0394

## RRIRKRPPRLPRPRPRPIANPRP
  shrunken log2 fold change: 0.339

## RRIRARPPRLPRPRPRPPKDPRP
  shrunken log2 fold change: 1.78

## RRIRPRPPRLPRPRPRPPEKPRP
  shrunken log2 fold change: 0.544

## RRIRMRPPRLPRPRPRPIPSPRP
  shrunken log2 fold change: 0.0101

## RRIRPRPPRLPRPRPRPMLTPRP
  shrunken log2 fold change: -0.333

## RRIRMRPPRLPRPRPRPFDWPRP
  shrunken log2 fold change: 0.597

## RRIRARPPRLPRPRPRPNADPRP
  shrunken log2 fold change: 0.825

## RRIRWRPPRLPRPRPRPKLQPRP
  shrunken log2 fold change: 0.182

## RRIRTRPPRLPRPRPRPTYLPRP
  shrunken log2 fold change: -0.827

## RRIRDRPPRLPRPRPRPEHAPRP
  shrunken log2 fold change: 0.294

## RRIRSRPPRLPRPRPRPQWYPRP
  shrunken log2 fold change: -0.73

## RRIRVRPPRLPRPRPRPCANPRP
  shrunken log2 fold change: -0.129

## RRIRDRPPRLPRPRPRPKEAPRP
  shrunken log2 fold change: -0.0217

## RRIRRRPPRLPRPRPRPCELPRP
  shrunken log2 fold change: -0.0595

## RRIRHRPPRLPRPRPRPVDVPRP
  shrunken log2 fold change: -0.119

## RRIRDRPPRLPRPRPRPCPIPRP
  shrunken log2 fold change: -0.00104

## RRIRHRPPRLPRPRPRPGNYPRP
  shrunken log2 fold change: 0.113

## RRIRRRPPRLPRPRPRPVDPPRP
  shrunken log2 fold change: 0.253

## RRIRVRPPRLPRPRPRPLVHPRP
  shrunken log2 fold change: -0.145

## RRIRARPPRLPRPRPRPESPPRP
  shrunken log2 fold change: 0.145

## RRIRDRPPRLPRPRPRPMGWPRP
  shrunken log2 fold change: 0.476

## RRIRTRPPRLPRPRPRPLGQPRP
  shrunken log2 fold change: -0.137

## RRIRVRPPRLPRPRPRPEDWPRP
  shrunken log2 fold change: 0.354

## RRIRERPPRLPRPRPRPNYNPRP
  shrunken log2 fold change: -1.1

## RRIRMRPPRLPRPRPRPGHVPRP
  shrunken log2 fold change: 0.329

## RRIRRRPPRLPRPRPRPCEYPRP
  shrunken log2 fold change: 0.0177

## RRIRARPPRLPRPRPRPEGVPRP
  shrunken log2 fold change: 1.1

## RRIRCRPPRLPRPRPRPYVFPRP
  shrunken log2 fold change: -0.362

## RRIRNRPPRLPRPRPRPEMHPRP
  shrunken log2 fold change: 0.191

## RRIRCRPPRLPRPRPRPHHQPRP
  shrunken log2 fold change: -0.278

## RRIRLRPPRLPRPRPRPMSGPRP
  shrunken log2 fold change: -0.0068

## RRIRVRPPRLPRPRPRPIHDPRP
  shrunken log2 fold change: -0.0895

## RRIRSRPPRLPRPRPRPYHVPRP
  shrunken log2 fold change: -1.09

## RRIRYRPPRLPRPRPRPKYNPRP
  shrunken log2 fold change: -1.24

## RRIRIRPPRLPRPRPRPISTPRP
  shrunken log2 fold change: -1.54

## RRIRARPPRLPRPRPRPCKLPRP
  shrunken log2 fold change: -0.693

## RRIRTRPPRLPRPRPRPKYTPRP
  shrunken log2 fold change: -0.508

## RRIRGRPPRLPRPRPRPGAGPRP
  shrunken log2 fold change: 1.05

## RRIRGRPPRLPRPRPRPVNAPRP
  shrunken log2 fold change: 0.719

## RRIRMRPPRLPRPRPRPYTMPRP
  shrunken log2 fold change: -0.06

## RRIRMRPPRLPRPRPRPPLVPRP
  shrunken log2 fold change: 0.36

## RRIRSRPPRLPRPRPRPKVEPRP
  shrunken log2 fold change: 0.213

## RRIRCRPPRLPRPRPRPTHPPRP
  shrunken log2 fold change: 0.164

## RRIRWRPPRLPRPRPRPRYSPRP
  shrunken log2 fold change: -0.136

## RRIRPRPPRLPRPRPRPTYWPRP
  shrunken log2 fold change: -0.00192

## RRIRLRPPRLPRPRPRPFRSPRP
  shrunken log2 fold change: -0.0185

## RRIRGRPPRLPRPRPRPNTWPRP
  shrunken log2 fold change: 0.237

## RRIRTRPPRLPRPRPRPDTYPRP
  shrunken log2 fold change: -0.202

## RRIRRRPPRLPRPRPRPKPEPRP
  shrunken log2 fold change: 0.489

## RRIRRRPPRLPRPRPRPQKKPRP
  shrunken log2 fold change: -0.0695

## RRIRWRPPRLPRPRPRPMNFPRP
  shrunken log2 fold change: -0.0285

## RRIRMRPPRLPRPRPRPVMGPRP
  shrunken log2 fold change: 0.387

## RRIRWRPPRLPRPRPRPLCAPRP
  shrunken log2 fold change: 0.776

## RRIRDRPPRLPRPRPRPKHLPRP
  shrunken log2 fold change: -0.0209

## RRIRLRPPRLPRPRPRPSLTPRP
  shrunken log2 fold change: -0.0866

## RRIRGRPPRLPRPRPRPKMSPRP
  shrunken log2 fold change: 0.344

## RRIRERPPRLPRPRPRPNKVPRP
  shrunken log2 fold change: -0.372

## RRIRERPPRLPRPRPRPFIHPRP
  shrunken log2 fold change: -1.12

## RRIRKRPPRLPRPRPRPTYFPRP
  shrunken log2 fold change: -0.817

## RRIRDRPPRLPRPRPRPQTAPRP
  shrunken log2 fold change: 4.26

## RRIRARPPRLPRPRPRPLSTPRP
  shrunken log2 fold change: 0.319

## RRIRGRPPRLPRPRPRPWKWPRP
  shrunken log2 fold change: 0.0325

## RRIRGRPPRLPRPRPRPKVEPRP
  shrunken log2 fold change: 0.615

## RRIRQRPPRLPRPRPRPRLEPRP
  shrunken log2 fold change: 0.109

## RRIRGRPPRLPRPRPRPTSGPRP
  shrunken log2 fold change: 0.917

## RRIRWRPPRLPRPRPRPSKHPRP
  shrunken log2 fold change: -0.499

## RRIRIRPPRLPRPRPRPPTVPRP
  shrunken log2 fold change: -0.155

## RRIRYRPPRLPRPRPRPFGVPRP
  shrunken log2 fold change: -0.306

## RRIRERPPRLPRPRPRPKMPPRP
  shrunken log2 fold change: -0.0401

## RRIRGRPPRLPRPRPRPKYNPRP
  shrunken log2 fold change: 0.02

## RRIRDRPPRLPRPRPRPGELPRP
  shrunken log2 fold change: 0.684

## RRIRVRPPRLPRPRPRPCWWPRP
  shrunken log2 fold change: 0.297

## RRIRERPPRLPRPRPRPKWRPRP
  shrunken log2 fold change: -0.102

## RRIRQRPPRLPRPRPRPEFFPRP
  shrunken log2 fold change: 0.0969

## RRIRVRPPRLPRPRPRPVPQPRP
  shrunken log2 fold change: 0.324

## RRIRDRPPRLPRPRPRPAWLPRP
  shrunken log2 fold change: 0.266

## RRIRPRPPRLPRPRPRPIRAPRP
  shrunken log2 fold change: -0.106

## RRIRWRPPRLPRPRPRPHGLPRP
  shrunken log2 fold change: 0.0735

## RRIRWRPPRLPRPRPRPQPLPRP
  shrunken log2 fold change: -0.0153

## RRIRCRPPRLPRPRPRPYKAPRP
  shrunken log2 fold change: -0.279

## RRIRCRPPRLPRPRPRPECFPRP
  shrunken log2 fold change: 0.165

## RRIRVRPPRLPRPRPRPMNSPRP
  shrunken log2 fold change: -0.675

## RRIRMRPPRLPRPRPRPCDVPRP
  shrunken log2 fold change: 0.0259

## RRIRDRPPRLPRPRPRPLRPPRP
  shrunken log2 fold change: 1.15

## RRIRFRPPRLPRPRPRPVPGPRP
  shrunken log2 fold change: 0.1

## RRIRHRPPRLPRPRPRPEFHPRP
  shrunken log2 fold change: -0.0718

## RRIRLRPPRLPRPRPRPCVDPRP
  shrunken log2 fold change: 0.0214

## RRIRKRPPRLPRPRPRPGGHPRP
  shrunken log2 fold change: 0.0505

## RRIRKRPPRLPRPRPRPYMPPRP
  shrunken log2 fold change: -0.315

## RRIRCRPPRLPRPRPRPYTMPRP
  shrunken log2 fold change: -0.382

## RRIRGRPPRLPRPRPRPTCHPRP
  shrunken log2 fold change: 0.893

## RRIRGRPPRLPRPRPRPYRAPRP
  shrunken log2 fold change: -0.233

## RRIRLRPPRLPRPRPRPPVNPRP
  shrunken log2 fold change: 0.168

## RRIRSRPPRLPRPRPRPSFAPRP
  shrunken log2 fold change: 0.0497

## RRIRIRPPRLPRPRPRPSATPRP
  shrunken log2 fold change: -0.17

## RRIRERPPRLPRPRPRPWRYPRP
  shrunken log2 fold change: -0.176

## RRIRSRPPRLPRPRPRPEPWPRP
  shrunken log2 fold change: 0.548

## RRIRYRPPRLPRPRPRPYGPPRP
  shrunken log2 fold change: -0.143

## RRIRCRPPRLPRPRPRPYIGPRP
  shrunken log2 fold change: -1.24

## RRIRSRPPRLPRPRPRPLNLPRP
  shrunken log2 fold change: -0.539

## RRIRCRPPRLPRPRPRPVRTPRP
  shrunken log2 fold change: 0.39

## RRIRCRPPRLPRPRPRPQNIPRP
  shrunken log2 fold change: -0.237

## RRIRTRPPRLPRPRPRPRHHPRP
  shrunken log2 fold change: -0.174

## RRIRQRPPRLPRPRPRPEEAPRP
  shrunken log2 fold change: 0.188

## RRIRVRPPRLPRPRPRPDHSPRP
  shrunken log2 fold change: -0.252

## RRIRVRPPRLPRPRPRPTTCPRP
  shrunken log2 fold change: -0.0091

## RRIRHRPPRLPRPRPRPHNFPRP
  shrunken log2 fold change: -0.0184

## RRIRARPPRLPRPRPRPIFCPRP
  shrunken log2 fold change: 0.445

## RRIRKRPPRLPRPRPRPFGFPRP
  shrunken log2 fold change: -0.137

## RRIRVRPPRLPRPRPRPEMPPRP
  shrunken log2 fold change: 0.0341

## RRIRLRPPRLPRPRPRPLVEPRP
  shrunken log2 fold change: 0.222

## RRIRIRPPRLPRPRPRPKQNPRP
  shrunken log2 fold change: -0.197

## RRIRERPPRLPRPRPRPMKKPRP
  shrunken log2 fold change: 0.00499

## RRIRKRPPRLPRPRPRPLTVPRP
  shrunken log2 fold change: 0.344

## RRIRHRPPRLPRPRPRPKAEPRP
  shrunken log2 fold change: 0.0672

## RRIRSRPPRLPRPRPRPQVDPRP
  shrunken log2 fold change: -0.296

## RRIRQRPPRLPRPRPRPDCKPRP
  shrunken log2 fold change: -0.0311

## RRIRNRPPRLPRPRPRPMHTPRP
  shrunken log2 fold change: 0.0242

## RRIRLRPPRLPRPRPRPHENPRP
  shrunken log2 fold change: 0.0369

## RRIRNRPPRLPRPRPRPLGQPRP
  shrunken log2 fold change: 0.0394

## RRIRVRPPRLPRPRPRPGHHPRP
  shrunken log2 fold change: 0.00137

## RRIRYRPPRLPRPRPRPFVLPRP
  shrunken log2 fold change: -0.855

## RRIRLRPPRLPRPRPRPFCGPRP
  shrunken log2 fold change: -0.126

## RRIRMRPPRLPRPRPRPHKYPRP
  shrunken log2 fold change: -0.152

## RRIRQRPPRLPRPRPRPETHPRP
  shrunken log2 fold change: 0.0176

## RRIRYRPPRLPRPRPRPNRPPRP
  shrunken log2 fold change: 0.000655

## RRIRVRPPRLPRPRPRPKDYPRP
  shrunken log2 fold change: -0.366

## RRIRVRPPRLPRPRPRPEYVPRP
  shrunken log2 fold change: -0.153

## RRIRKRPPRLPRPRPRPSFRPRP
  shrunken log2 fold change: -0.294

## RRIRERPPRLPRPRPRPLCGPRP
  shrunken log2 fold change: -0.2

## RRIRFRPPRLPRPRPRPRKNPRP
  shrunken log2 fold change: 0.266

## RRIRCRPPRLPRPRPRPVYCPRP
  shrunken log2 fold change: -0.755

## RRIRERPPRLPRPRPRPCWTPRP
  shrunken log2 fold change: 0.0421

## RRIRVRPPRLPRPRPRPNDLPRP
  shrunken log2 fold change: -0.31
